From patent US20160090427A1 (SAMSUNG ELECTRONICS, published 2016) come the findings set out here.

One experiment addresses VEGF (R&D systems) (UniProt P15692-4 27-191, limits assumed). The experiment is described as follows: SPR (Biacore T100), CM5 chip, VEGF; format unclear in the text. As to the method:
An examination on whether the 8 anti-c-Met/anti-VEGF bispecific antibodies prepared in Example 2 maintains binding affinity to VEGF was conducted using Biacore T100(GE). VEGF (R&D systems) immobilized on the surface of CM5 chip (#BR-1005-30, GE) by amino coupling according to the manufacturer's instructions. About 90˜120 RU of the anti-c-Met/anti-VEGF bispecific antibody was captured, and […] was injected thereto at various concentrations. Then, a solution containing 1M NaCl and 5 mM NaOH was injected thereto to regenerate the surface. The obtained data were fitted using BlAevaluation software (GE Healthcare, Biacore T100 evaluation software), to measure the binding affinity to VEGF.
For orientation: Surface plasmon resonance follows binding to a sensor surface in real time, without labels.

In experiment [1] the target is T1, human c-Met/Fc fusion protein (R&D Systems) (human, UniProt P08581 25-932).
T1 construct: Bought reagent; also called c-Met-Fc (#358-MT/CF, R&D Systems); human c-Met/Fc protein; not shown: Fc part of the bought fusion protein
The experiment is described as follows: SPR (Biacore T100), bispecific captured by human Fab binder on CM5 chip, c-Met-Fc injected. The protocol:
An examination on whether the anti-c-Met/anti-VEGF bispecific antibody maintains binding affinity to c-Met was conducted using Biacore T100(GE). A human Fab binding agent (GE Healthcare) was immobilized onto a CM5 chip (#BR-1005-30, GE) according to the manufacturer's instructions. About 90˜120 RU of the anti-c-Met/anti-VEGF bispecific antibody was captured, and c-Met-Fc (#358-MT/CF, R&D Systems) was injected thereto at various concentrations. Then, 10 mM Glycine-HCl (pH 2.1) solution was injected thereto to regenerate the surface. The obtained data were fitted using BlAevaluation software (GE Healthcare, Biacore T100 evaluation software), to measure the binding affinity to c-Met.

T1 sequence (P08581 25-932 limits assumed): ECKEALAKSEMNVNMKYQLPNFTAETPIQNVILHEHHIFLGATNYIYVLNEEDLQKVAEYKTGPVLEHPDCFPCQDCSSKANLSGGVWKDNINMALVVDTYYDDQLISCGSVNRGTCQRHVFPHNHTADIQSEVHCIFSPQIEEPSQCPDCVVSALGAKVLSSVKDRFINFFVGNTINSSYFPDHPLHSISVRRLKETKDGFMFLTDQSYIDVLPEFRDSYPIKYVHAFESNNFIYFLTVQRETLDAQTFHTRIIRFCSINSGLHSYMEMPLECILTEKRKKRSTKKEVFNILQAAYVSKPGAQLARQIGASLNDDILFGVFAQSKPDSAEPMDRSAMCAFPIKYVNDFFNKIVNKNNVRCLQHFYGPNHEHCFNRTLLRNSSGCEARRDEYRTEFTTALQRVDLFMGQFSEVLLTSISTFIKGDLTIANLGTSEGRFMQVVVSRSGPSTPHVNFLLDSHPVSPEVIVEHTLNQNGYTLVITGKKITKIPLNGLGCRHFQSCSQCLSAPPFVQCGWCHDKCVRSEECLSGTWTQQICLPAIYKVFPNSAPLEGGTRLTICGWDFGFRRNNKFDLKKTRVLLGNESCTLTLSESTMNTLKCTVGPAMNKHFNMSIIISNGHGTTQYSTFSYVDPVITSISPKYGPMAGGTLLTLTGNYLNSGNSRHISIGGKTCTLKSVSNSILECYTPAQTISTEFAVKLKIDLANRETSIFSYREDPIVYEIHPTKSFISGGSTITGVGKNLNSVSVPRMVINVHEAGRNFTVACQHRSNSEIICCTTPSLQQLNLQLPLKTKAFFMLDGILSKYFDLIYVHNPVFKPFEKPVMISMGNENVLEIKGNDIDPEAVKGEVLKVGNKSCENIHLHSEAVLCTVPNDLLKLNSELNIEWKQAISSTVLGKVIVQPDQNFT
Sequence of VEGF (R&D systems) (P15692 other isoform, or with tags, fused parts or gaps limits assumed): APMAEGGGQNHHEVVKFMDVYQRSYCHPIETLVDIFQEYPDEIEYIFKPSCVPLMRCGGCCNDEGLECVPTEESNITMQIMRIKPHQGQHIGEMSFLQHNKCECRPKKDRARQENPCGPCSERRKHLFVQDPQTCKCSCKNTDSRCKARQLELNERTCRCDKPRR

B1: MV-15 anti-c-Met/anti-VEGF bispecific antibody (bispecific antibody, human IgG2, kappa)
heavy: EVQLVESGGGLVQPGGSLRLSCAASGFTFTDYYMSWVRQAPGKGLEWLGFIRNKANGYTTEYSASVKGRFTISRDNSKNTLYLQMNSLRAEDTAVYYCARDNWFAYWGQGTLVTVSSASTKGPSVFPLAPCSRSTSESTAALGCLVKDYFPEPVTVSWNSGALTSGVHTFPAVLQSSGLYSLSSVVTVPSSNFGTQTYTCNVDHKPSNTKVDKTVERKCCVECPPCPAPPVAGPSVFLFPPKPKDTLMISRTPEVTCVVVDVSHEDPEVQFNWYVDGVEVHNAKTKPREEQFNSTFRVVSVLTVVHQDWLNGKEYKCKVSNKGLPAPIEKTISKTKGQPREPQVYTLPPSREEMTKNQVSLTCLVKGFYPSDIAVEWESNGQPENNYKTTPPMLDSDGSFFLYSKLTVDKSRWQQGNVFSCSVMHEALHNHYTQKSLSLSPGKGGGGSGGGGSEVQLLESGGGLVQPGGSLRLSCAASGFTFSGYAMSWVRQAPGKGLEWVSSIYSSSGSKYYADSVKGRFTISRDNSKNTLYLQMNSLRAEDTAVYYCARASSTCTRTWCSYDDAMDVWGQGTLVTVSSGGGGSGGGGSGGGGSQSVLTQPPSASGTPGQRVTISCTGSSSNIGNNAVTWYQQLPGTAPKLLIYDDSHRPSGVPDRFSGSKSGTSASLAISGLRSEDEADYYCGTWDYSLSGYVFGGGTKLTVLG
light: DIQMTQSPSSLSASVGDRVTITCKSSQSLLASGNQNNYLAWYQQKPGKAPKMLIIWASTRVSGVPSRFSGSGSGTDFTLTISSLQPEDFATYYCQQSYSRPYTFGQGTKVEIKRTVAAPSVFIFPPSDEQLKSGTASVVCLLNNFYPREAKVQWKVDNALQSGNSQESVTEQDSKDSTYSLSSTLTLSKADYEKHKVYACEVTHQGLSSPVTKSFNRGEC
notes: This is an inference
One may read the Kd as the free concentration of one partner at which half of the binding sites on the other are occupied at equilibrium, for simple one-to-one binding. Take B1: the Kd with VEGF (R&D systems) was found to be 6.83 nM; in experiment [1], 0.1 nM.

B2: MV-17 anti-c-Met/anti-VEGF bispecific antibody (bispecific antibody, human IgG2, kappa)
heavy: EVQLVESGGGLVQPGGSLRLSCAASGFTFTDYYMSWVRQAPGKGLEWLGFIRNKANGYTTEYSASVKGRFTISRDNSKNTLYLQMNSLRAEDTAVYYCARDNWFAYWGQGTLVTVSSASTKGPSVFPLAPCSRSTSESTAALGCLVKDYFPEPVTVSWNSGALTSGVHTFPAVLQSSGLYSLSSVVTVPSSNFGTQTYTCNVDHKPSNTKVDKTVERKCCVECPPCPAPPVAGPSVFLFPPKPKDTLMISRTPEVTCVVVDVSHEDPEVQFNWYVDGVEVHNAKTKPREEQFNSTFRVVSVLTVVHQDWLNGKEYKCKVSNKGLPAPIEKTISKTKGQPREPQVYTLPPSREEMTKNQVSLTCLVKGFYPSDIAVEWESNGQPENNYKTTPPMLDSDGSFFLYSKLTVDKSRWQQGNVFSCSVMHEALHNHYTQKSLSLSPGKGGGGSGGGGSEVQLLESGGGLVQPGGSLRLSCAASGFTFSNYDMSWVRQAPGKGLEWVSGIYPNGGSKYYADSVKGRFTISRDNSKNTLYLQMNSLRAEDTAVYYCARALRQCQRYWCSYADGMDVWGQGTLVTVSSGGGGSGGGGSGGGGSQSVLTQPPSASGTPGQRVTISCTGSSSNIGSNYVSWYQQLPGTAPKLLIYADSQRPSGVPDRFSGSKSGTSASLAISGLRSEDEADYYCGTWDYSLSGYVLGGGTKLTVLG
light: DIQMTQSPSSLSASVGDRVTITCKSSQSLLASGNQNNYLAWYQQKPGKAPKMLIIWASTRVSGVPSRFSGSGSGTDFTLTISSLQPEDFATYYCQQSYSRPYTFGQGTKVEIKRTVAAPSVFIFPPSDEQLKSGTASVVCLLNNFYPREAKVQWKVDNALQSGNSQESVTEQDSKDSTYSLSSTLTLSKADYEKHKVYACEVTHQGLSSPVTKSFNRGEC
For the molecule B2, the Kd came to 5.76 nM with VEGF (R&D systems) and 0.09 nM in experiment [1].

B3: MV-19 anti-c-Met/anti-VEGF bispecific antibody (bispecific antibody, human IgG2, kappa)
heavy: EVQLVESGGGLVQPGGSLRLSCAASGFTFTDYYMSWVRQAPGKGLEWLGFIRNKANGYTTEYSASVKGRFTISRDNSKNTLYLQMNSLRAEDTAVYYCARDNWFAYWGQGTLVTVSSASTKGPSVFPLAPCSRSTSESTAALGCLVKDYFPEPVTVSWNSGALTSGVHTFPAVLQSSGLYSLSSVVTVPSSNFGTQTYTCNVDHKPSNTKVDKTVERKCCVECPPCPAPPVAGPSVFLFPPKPKDTLMISRTPEVTCVVVDVSHEDPEVQFNWYVDGVEVHNAKTKPREEQFNSTFRVVSVLTVVHQDWLNGKEYKCKVSNKGLPAPIEKTISKTKGQPREPQVYTLPPSREEMTKNQVSLTCLVKGFYPSDIAVEWESNGQPENNYKTTPPMLDSDGSFFLYSKLTVDKSRWQQGNVFSCSVMHEALHNHYTQKSLSLSPGKGGGGSGGGGSEVQLLESGGGLVQPGGSLRLSCAASGFTFSSYSMSWVRQAPGKGLEWVSGISHGGGNKYYADSVKGRFTISRDNSKNTLYLQMNSLRAEDTAVYYCARDLRANNDTGFDYWGQGTLVTVSSGGGGSGGGGSGGGGTQSVLTQPPSSSGTPGQRVTISCTGSSSNIGSNAVTWYQQLPGTAPKLLIYDDNHRPSGVPDRFSGSKSGTSASLAISGLRSEDEADYYCGAWDYSLNAYVFGGGTKLTVLG
light: DIQMTQSPSSLSASVGDRVTITCKSSQSLLASGNQNNYLAWYQQKPGKAPKMLIIWASTRVSGVPSRFSGSGSGTDFTLTISSLQPEDFATYYCQQSYSRPYTFGQGTKVEIKRTVAAPSVFIFPPSDEQLKSGTASVVCLLNNFYPREAKVQWKVDNALQSGNSQESVTEQDSKDSTYSLSSTLTLSKADYEKHKVYACEVTHQGLSSPVTKSFNRGEC
In the case of B3, the values for the Kd (with VEGF (R&D systems); in experiment [1]) were 1 nM and 0.3 nM, respectively.

B4: MV-18 anti-c-Met/anti-VEGF bispecific antibody (bispecific antibody, human IgG2, kappa)
heavy: EVQLVESGGGLVQPGGSLRLSCAASGFTFTDYYMSWVRQAPGKGLEWLGFIRNKANGYTTEYSASVKGRFTISRDNSKNTLYLQMNSLRAEDTAVYYCARDNWFAYWGQGTLVTVSSASTKGPSVFPLAPCSRSTSESTAALGCLVKDYFPEPVTVSWNSGALTSGVHTFPAVLQSSGLYSLSSVVTVPSSNFGTQTYTCNVDHKPSNTKVDKTVERKCCVECPPCPAPPVAGPSVFLFPPKPKDTLMISRTPEVTCVVVDVSHEDPEVQFNWYVDGVEVHNAKTKPREEQFNSTFRVVSVLTVVHQDWLNGKEYKCKVSNKGLPAPIEKTISKTKGQPREPQVYTLPPSREEMTKNQVSLTCLVKGFYPSDIAVEWESNGQPENNYKTTPPMLDSDGSFFLYSKLTVDKSRWQQGNVFSCSVMHEALHNHYTQKSLSLSPGKGGGGSGGGGSEVQLLESGGGLVQPGGSLRLSCAASGFTFSDYYMSWVRQAPGKGLEWVSAIYSGGGSIYYADSVKGRFTISRDNSKNTLYLQMNSLRAEDTAVYYCARDVQWNKAPRFDYWGQGTLVTVSSGGGGSGGGGSGGGGSQSVLTQPPSASGAPGQRVTISCSGSSSNIGSNDVSWYQQLPGTAPKLLIYADSNRPSGVPDRFSGSKSGTSASLAISGLRSEDEADYYCGSWDYSLSGYVFGGGTKLTVLG
light: DIQMTQSPSSLSASVGDRVTITCKSSQSLLASGNQNNYLAWYQQKPGKAPKMLIIWASTRVSGVPSRFSGSGSGTDFTLTISSLQPEDFATYYCQQSYSRPYTFGQGTKVEIKRTVAAPSVFIFPPSDEQLKSGTASVVCLLNNFYPREAKVQWKVDNALQSGNSQESVTEQDSKDSTYSLSSTLTLSKADYEKHKVYACEVTHQGLSSPVTKSFNRGEC
With B4, the results for the Kd (in the experiment with VEGF (R&D systems); in experiment [1]) were 4.23 nM and 0.05 nM, respectively.

B5: MV-16 anti-c-Met/anti-VEGF bispecific antibody (bispecific antibody, human IgG2, kappa)
heavy: EVQLVESGGGLVQPGGSLRLSCAASGFTFTDYYMSWVRQAPGKGLEWLGFIRNKANGYTTEYSASVKGRFTISRDNSKNTLYLQMNSLRAEDTAVYYCARDNWFAYWGQGTLVTVSSASTKGPSVFPLAPCSRSTSESTAALGCLVKDYFPEPVTVSWNSGALTSGVHTFPAVLQSSGLYSLSSVVTVPSSNFGTQTYTCNVDHKPSNTKVDKTVERKCCVECPPCPAPPVAGPSVFLFPPKPKDTLMISRTPEVTCVVVDVSHEDPEVQFNWYVDGVEVHNAKTKPREEQFNSTFRVVSVLTVVHQDWLNGKEYKCKVSNKGLPAPIEKTISKTKGQPREPQVYTLPPSREEMTKNQVSLTCLVKGFYPSDIAVEWESNGQPENNYKTTPPMLDSDGSFFLYSKLTVDKSRWQQGNVFSCSVMHEALHNHYTQKSLSLSPGKGGGGSGGGGSEVQLLESGGGLVQTGGSLRLSCAASGFTFSDYAMSWVRQAPGKGLEWVSSIYPGSGSKYYADSVKGRFAISRDNSKNTLYLQMNSLRAEDTAVYYCARDAWFRGHNVFDYWGQGTLVTVSSGGGGSGGGGSGGGGSQSVLTQPPSASGTPGQRVTISCTGSSSNIGSNNVTWYQQLPGTAPKLLIYSDSHRPSGVPDRFSGSKSGTSASLAISGLQSEDEADYYCGSWDYSLSAYVFGGGTKLTVLG
light: DIQMTQSPSSLSASVGDRVTITCKSSQSLLASGNQNNYLAWYQQKPGKAPKMLIIWASTRVSGVPSRFSGSGSGTDFTLTISSLQPEDFATYYCQQSYSRPYTFGQGTKVEIKRTVAAPSVFIFPPSDEQLKSGTASVVCLLNNFYPREAKVQWKVDNALQSGNSQESVTEQDSKDSTYSLSSTLTLSKADYEKHKVYACEVTHQGLSSPVTKSFNRGEC
For B5, the Kd in the experiment with VEGF (R&D systems) was 14.8 nM; in experiment [1], 0.21 nM.
